Test results: the DeepSol protein solubility set

assay: soluble on expression in E. coli; label from the status in PepcDB or PDB records

Row | Sequence | soluble on expression in E. coli
1 | MNIDLTPYYAEPGEQPFSARRMAMPWRNHVPLSPEQIPAGWQTLKQQSVPARKRLLYLHIPFCATHCTFCGFYQNKLRDDSTATYTRYLLQELAMEADSPLHQSAPIHAVYFGGGTPTALAADELSQIIRAIRTSLPLAPDCEITVEGRAMDFDDERIDACLDAGANRFSIGIQTFDTRIRQRMARTSDKQQSIRFLERLCGRDRAAVVCDLMFGLPGQTPEIWREDLAIVSDLPLDGVDLYALNLLPTTPLAKAAENQRVALPDVVARRDFYRTGAAFLADSGWHQLSNSHWARTTRERNLYNLLIKQGADCLAMGSGAGGNINGQAYMMERSLERYYQQIDQGQKPIMMMTPASSTGPWQHQLQAGIEVGRIKLPQLTQHARELQPLLSQWHQAGLTCDDSTCLRLTNDGRFWANNLMQALQQIIPQLNAEEHAHLEHHHHHH | soluble
2 | MPDSTRQPSAPVRDRLQQYGLSETEAETYLAVVEKGPATARTVAETAGVSKSYVYDICDSLAVDGFVSVDDHRTPTVIRATPPSEAFSALKRELDTLEAAVQTRYEDTAAENNTFEVVKSRPTIVKRLEQHIEAADCEVILQIPARRLPDIRDPLRRARERGILVLLTLSSYDRATMELDLKEIANAVRIGLDGAPSLLATDQQRGFVSPSTMLSWDHDETNAITFTQEAVAAVLVGSYLGNYWPIGEEVLVSRPPSLPARYDMFRPVVFTTTLALRAGESVVADLYARPTGSDDDFEVISGEVVDVRQNLVAPHNSDFGFENSLVVDTGDSRITVGGYGAFLEDYEVKHTTLRRA | not soluble
3 | MKKAADRPTSAVNGRHESPATSTNNTQNSGTPSLNGQDPLRSTSSSPLFGTEPLPEDDHASCPYCQQDFRKPRVLDCLHSMCEDCIIAQLDGHLQAKSAAIEEKKRATAAMLDCELETPKVKERPTPPGVIRCPICSQESHVGNDVRYVHAMLLDFVRLAEMKEVEVEKMVAHHRKPCTACKSEQEAIAFCDQCSSDLCENCTTAHTVMNLFQGHTVTTFADLRQPGAHPELRQVMCSTHNQHMRYLCAACETAACKQCLEVDHLNHKIIDINELVINAIREDVTSTVDRVEKKYNNSVADMNSLPDKSQQLNEQYEIAKYRVDKHYEELRNSIEEAYQKSVNDLEEARIRQESNIDEMYRKSQVNEARVHDAINFTRRLLTKGNGLELVVSRKKVIQQFGNLSHAIPSHGHQVELEFYTPSKKQIDHFVHQLTGTVIGRVIQPTVKDVGNATAASTDRSERGGSQPGGGRSSSAANPSQQDEWGRPVYSQNPQLGAIGGERKKNTQNGTNGTRGDSNAFGGWPPSSHPPESTTPPPVTGPQTMITGAPTQTAAPIVSQQQLSNLPNAAAMAAAAAGMRPDLVALAANHMDLAALTNGSTNGSQTPLPESIFPAMWNARQGLPAVATPTTTGLSTNASAAYMQQKLAAAQLQALASHRLNPQIMSMNNLRTNQTIQEFLAMNAMGNLSLNPQLTSAAAAALAATAAANSAVTTTASDVGQSQNSANAQRVSDLKVHSVFGTSQQGSTIRELHCPSGFCLSDTDDILIADTNNHRVVVCGPPHPWKIGRPGTDDGQLCFPRKVIALRGEAVRYVVLDKGGDGKTRAQIFEARGEFVKRLNMMALVPRGGIEVSAAAATPNGQLLLVDTAGFVYSIDVDAPRVTFWFDASTQLGEASDVAMFDNLIYITDFKHHCVQVYTSEGKFIRKMGEPSQTPYPIGIDVSKAGEVLVADTHGNHLHVVVFSPEGQHIHSFTHNEFRLSRCVGLRIAKSGHIVTLCKHNHTLFVFKPLILPNGLPVPTPVPHATSLISKFQ | not soluble
4 | MLVFIDDGSTNIKLQWQESDGTIKQHISPNSFKREWAVSFGDKKVFNYTLNGEQYSFDPISPDAVVTTNIAWQYSDVNVVAVHHALLTSGLPVSEVDIVCTLPLTEYYDRNNQPNTENIERKKANFRKKITLNGGDTFTIKDVKVMPESIPAGYEVLQELDELDSLLIIDLGGTTLDISQVMGKLSGISKIYGDSSLGVSLVTSAVKDALSLARTKGSSYLADDIIIHRKDNNYLKQRINDENKISIVTEAMNEALRKLEQRVLNTLNEFSGYTHVMVIGGGAELICDAVKKHTQIRDERFFKTNNSQYDLVNGMYLIGN | soluble
5 | MAHHHHHHMSFAGLQKRLKNKAVATTTTNSTPPSSDAKTDNIESSSSVYDVAAREARANHEERKRQRSPHDKENTAYNPTINERNGPADMLSDHPSVEKASSKTLTETEFLERRHLAEEVVLQCAEAMSRNMELAATSIDKIDIKKESEVYDMSGLPLPLCQFLEQRLQRSSDATAMLISTCEEEEHNLVSALRSPSNLPMLFPPQVEDFVTTLRTLWLALCWHWVMALRGKEGNEGKEVSENGWSYNVYLLSRHALPITVRNTRGRDVALALQAWQEAYRVRQNMLDFLAYILHDMGVVLRFSGDDASKGDENLRIVPPKIADSIFCMVQHLRRRDFTTVRQAYVELTMGTANWKLGLFSGGEVHMRRSMERIERRRIEHLLHNERAVRLLHVLRELIEFVQKNEVMLLHTGIFAREKSMKEHSP | not soluble
6 | MGHHHHHHSHEWGTVQLRGSWRVGQTAGGSRNFASYPTNPCFPFSVPEGPGPRCVRITLHQHCRPSDTEFHPIGFHIFQVPEGGRSQDAPPLLLQEPLLSCVPHRYAQEVSRLCLLPAGTYKVVPSTYLPDTEGAFTVTIATRIDRPSIHSQEMLGQFLQEVSVMAVMKT | not soluble
7 | MGSDKIHHHHHHMVRPASRSERASLRIMNINPWRCEVSEKLLKQVNDKVSLCEKIAAEGFSFVPGQQIREWLLASNSEALQDWQAFDASWDGMPLDEYMADGGRYRRRRFATLSAATEGPIMLEPHQPHYQSREYNSLNGGIARIYEPIPPAVIQGQTMQSILQLSRDLFSHLRPQTRWHIEAHQFRIETNQHERGQPAPEGVHRDGVDYVLVMMVKRVNISSGTTTLHNLDKVVLDSFTLTNPLDCALVDDRRCMHGVTPVEQIDPAKAAYRDVLVVTFTAKL | not soluble
8 | MSEPLDLNQLAQKIKQWGLELGFQQVGITDTDLSESEPKLQAWLDKQYHGEMDWMARHGMLRARPHELLPGTLRVISVRMNYLPANAAFASTLKNPKLGYVSRYALGRDYHKLLRNRLKKLGEMIQQHCVSLNFRPFVDSAPILERPLAEKAGLGWTGKHSLILNREAGSFFFLGELLVDIPLPVDQPVEEGCGKCVACMTICPTGAIVEPYTVDARRCISYLTIELEGALPEELRPLMGNRIYGCDDCQLICPWNRYSQLTTEDDFSPRKPLHAPELIELFAWSEEKFLKVTEGSAIRRIGHLRWLRNIAVALGNAPWDETILTALESRKGEHPLLDEHIAWAIAQQIERRNACIVEVQLPKKQRLVRVIEKGLPRDA | not soluble
9 | MGSDKIHHHHHHMRRTALHSSTVGIRMRRALLRGLALSLTLGGAALGQSVGDSIFPSLGQRGLDVQHYDLHLTVPRPGEPHLSGDVTLTVGAREPLSRIVLDLLGPRVSAAQWNGQRVRWVQTAQKVEVTLPRPLRPGETGRLRLIYAGTPELSGDPGLPIRPGWQNEAGLSYSLSEPHGTRGFLPCNDHPSDPATFTVRVTVPASASAAASGLFTTQTERNGLKTLTFTQRVPVPTYALGLIVGPLERRTAPDVQLGTQTVHRRDIYAAGLPAGTTVPEGETARMLRVLSDWFGPYPDEVYGVALLPVRQLALETAGLTTMPATSNRERVRLHELAHQWFGDQVTLADWADTWLSEGFATYAELLWAESQGEDGQAMAADWYARLSVLPSRPLRATREEEIFDASAYFRGALALHALRLKVGDAAFGQFLHSYVKTFTGRPVSTTALLTLVKTQLGAEAEQTLRVWVEGRTLPPLPEPVGAPV | not soluble
10 | MYEEFRDVITFQSYVEQSNGEGGKTYKWVDEFTAAAHVQPISQEEYYKAQQLQTPIGYNIYTPYDDRIDKKMRVIYRGKIVTFIGDPVDLSGLQEITRIKGKEDGAYVG | soluble
11 | MGSDKIHHHHHHLASHHSLLNHQRHFERIGPDYRNGDSVSFLDIKHTFGLQHIRVGKWVNREESALAANLIFDSLADLANILAVPPELIGLRGSLRFAFGHGGQKGVQAHYSPAYRELALAKNAGAGALAHEFWHAFDHYIADKMFIDDSILDPYLSSLILSEQTTNTTRTNFSRANLFACASDNWLADKSIIAHPLNKKLSSLFKVTLLSANGQEPHDYVRRSIALDKQQRSHYFAKPTEMMARAFESCIEMYSQDYANISNPYLVNSTIDSPLAKHGAYPDAQHCREIYQAMMEYFEPLGLAFDKQNGQK | not soluble
12 | MSGRVGDLSPRQKEALAKFRENVQDVLPALPNPDDYFLLRWLRARSFDLQKSEAMLRKHVEFRKQKDIDNIISWQPPEVIQQYLSGGMCGYDLDGCPVWYDIIGPLDAKGLLFSASKQDLLRTKMRECELLLQECAHQTTKLGRKVETITIIYDCEGLGLKHLWKPAVEAYGEFLCMFEENYPETLKRLFVVKAPKLFPVAYNLIKPFLSEDTRKKIMVLGANWKEVLLKHISPDQVPVEYGGTMTDPDGNPKCKSKINYGGDIPRKYYVRDQVKQQYEHSVQISRGSSHQVEYEILFPGCVLRWQFMSDGADVGFGIFLKTKMGERQRAGEMTEVLPNQRYNSHLVPEDGTLTCSDPGIYVLRFDNTYSFIHAKKVNFTVEVLLPDKASEEKMKQLGAGTPK | soluble
13 | MSLGLAIIHSRASIGVQAPPVTVEVHISNGMPGFTLVGLPETTVKESRDRVRSAIINSRFEFPAKRITVNLAPADLPKEGGRFDLPIALGILAASDQIARNKLESYEFIGELALSGEIRGVKGVLPAALAANQVERCLVVPHSNGDQAALVGVERHKSAQSLLEVCADLCGQQTLSLFQSSPSVQQVSQTRDLQDIIGQQQGKRALEIAAAGNHNLLFLGPPGTGKTMLASRLCDLLPEMSDEEAMETASIASLTQQEINQHNWKLRPFRAPHHSSSMAALVGGGTIPRPGEISLAHNGLLFLDEMPEFERKVLDSLREPLESGEIVISRAQGKTRFPARFQLVGALNPSPTGYYEGSQARANPQSILRYLSRLSGPLLDRFDMSIEIPALPKGTLANGGDRGESTAAVRQRVWVARERMLARSGKVNALLQSREIEQYCPLLKADAEFLESALHRLGLSIRAYHRIIKVARTIADLQGEAQIARPHLAEALGYRAMDRLLKQLSAQNEGHHHHHH | soluble
14 | MTHIAFGHYLHSKRWYTVQVLSKSEDAMSTQLDPTQLAIEFLRRDQSNLSPAQYLKRLKQLELEFADLLTLSSAELKEEIYFAWRLGVH | not soluble
15 | MYKRAEYHVITDRLKDRRRFIQVVMGARQIGKSTVVKQVLKDLDAPYQFFSADNVPTVNGAWISDCWAAVRSLKEAKEWESIILVIDEIQKIANWSEVVKKEWDDDTFHDRNIKVLLLGSSRVLLEKGLSESLAGRFEEIRMSHWSYQEMKDCFGFSLNQYLFYGGYPGAASLTDDDDRFSQYIQAAIIEATINKDILMGTPIGKPALLRRTFELGAAYSGELLSLNKMLGSLQDAGNTVTLAGYINLLDESGLLCGLQKFGYDMARRKASIPKLQVYNNALKMVYSPFTFEQAMLDRKSWGRIFESGIGAYLVSQAFVHRFEVFYWRERDDEVDFVLRKKGSVVAIEVKSNAEKRTDGLDKFSHSFKPQSAFILGDGGVRAEDFLSMDIRKLF | not soluble
16 | MGSDKIHHHHHHMNEILKNSPISRAKLSEITGLNKSTISSQVNTLLENKFIFEIGEGQSRGGRRPVMLVFNKNAGYSIGIDVGVDYINGILTDLEGNIVLEKSYNLPIPSSDEVKEILFTIIKYFVSHMPESPYGLIGIGICVPGLVDKQQKIIFMPNSKWEIKDLKAVIETEFNVPVFIENEANAGAYGEKVFGNTKNFSNIIYVSINVGIGIGIIINNELYKGINGFSGEMGHMAIDFNGPKCSCGNRGCWELYASEKALLNSFFKDGKAISCHEIIELAHKNDVEVLNALQNFGFYIGIGLTNILNTFDAEAVILRNHIIESNPIVLNAIKNAVSSRVYSQIEGTYELLPSSLGKNAPALGTTSIVIEHFLNK | not soluble
